Reference: paper PMC4072508, “Genome-Wide Prediction and Validation of Peptides That Bind Human Prosurvival Bcl-2 Proteins” (PLoS Computational Biology, 2014)
pKd: −log10 of the molar value. “And” between values parts separate entries of the source, which are not always exact repeats. Equal values may be shown once. Read-outs that look alike come from different tables or passages of the source.

Legend:
[1] = molecular target: T1, Mcl-1 (Homo sapiens, UniProt Q07820); experiment: LUMIER full-length protein interaction; assay type: binding; settings: LUMIER results for Mcl-1, Z-score relative to Gaussian fit of the data; for z-score 1.2: experiment 1, duplicate 2; for z-score 2.1: experiment 2, duplicate 1; for z-score 2.2: experiment 2, duplicate 2
T1 construct: myc-Mcl-1 SPOT array & FP; made in house
Experimental: (§1) The LUMIER assay was carried out as previously described with the following modifications. A stable cell line expressing receptor tagged on the N-terminus with Nanoluc luciferase was created (the prey). […] Each bait construct was transfected into the receptor-luciferase cells in a 96-well format and after 48 hours the cells were lysed and transferred to 384-well plates coated with anti-FLAG. After incubation and washing, luminescence was measured to quantify how much receptor-luciferase was captured by the bait protein. Anti-Flag ELISA signal was used to exclude bait proteins that were not expressed. The experiment was carried out two times, each in duplicate.

[2] = molecular target: T2, Bcl-xL (Homo sapiens, UniProt Q07817); experiment: LUMIER full-length protein interaction; assay type: binding; settings: LUMIER results for Bcl-xL; for z-score 1.1: experiment 1, duplicate 1; for z-score 1.2: experiment 1, duplicate 2; for z-score 2.1: experiment 2, duplicate 1; for z-score 2.2: experiment 2, duplicate 2
T2 construct: myc-Bcl-xL SPOT array & FP; made in house
Experimental: as §1

[3] = molecular target: T1, Mcl-1; settings: read-out: Binder class, Mcl-1, cited from earlier work
Source text: Negative control mutatio ...

[4] = Z-score relative to Gaussian fit of the data
[5] = S1 Bim variants, specific binding measured using yeast display, ref Dutta et al. (2010)
[6] = natural BH3 peptides, interactions taken from literature
[7] = Z-score of the interaction relative to the Gaussian fit of the data

T2 sequence (Q07817 with tags, fused parts or gaps): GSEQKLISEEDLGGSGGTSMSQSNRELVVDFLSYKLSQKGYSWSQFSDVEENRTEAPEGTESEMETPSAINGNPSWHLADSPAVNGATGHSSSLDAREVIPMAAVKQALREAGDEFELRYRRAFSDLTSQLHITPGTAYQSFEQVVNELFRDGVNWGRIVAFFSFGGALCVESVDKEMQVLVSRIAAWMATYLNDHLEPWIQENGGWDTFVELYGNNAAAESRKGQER
T1 sequence (Q07820 with tags, fused parts or gaps): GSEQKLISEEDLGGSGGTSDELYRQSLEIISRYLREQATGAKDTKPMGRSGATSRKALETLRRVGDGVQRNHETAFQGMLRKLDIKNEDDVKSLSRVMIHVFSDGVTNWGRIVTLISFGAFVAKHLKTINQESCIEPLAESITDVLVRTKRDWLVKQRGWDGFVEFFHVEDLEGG

Row | Substance | z-score 2.1 [1] | z-score 2.2 [1] | z-score 1.1 [2, 4] | z-score 1.2 [2, 4] | z-score 2.2 [2, 4] | pKd [3, 5] | further results
1 | STK11IP (DSLLWKLAGLLRESGDVVLSGCSTLS) | -0.9757 | -1.0129 | -2.105 | -2.491 | 0.7075 | – | z-score 1.2 [1]: 0.4828; z-score 2.1 [2, 4]: -0.2948
2 | PEIWIAQEIDRIGDEVNAYYARR | – | – | – | – | – | > 6.00 | –
3 | PRDX4 (LDFTFVCPTEIIAFGDRLEEFRSINT) | -0.006199 | -0.3116 | -0.3595 | -2.173 | -0.635 | – | z-score 1.2 [1]: -0.5708; z-score 2.1 [2, 4]: -0.3545
4 | AEVQIARKLQCIADQFHRLHVQQ (HQAEVQIARKLQCIADQFHRLHVQQH) [Bmf] | – | – | – | – | – | – | pKd [3, 6]: < 5.00
5 | BAK1 (SSTMGQVGRQLAIIGDDINRRYDSEF) | 5.961 | 6.848 | – | – | – | – | z-score 1.2 [1]: 6.48; z-score 1.1 [2, 7]: 0.8883; z-score 1.2 [2, 7]: 2.921; z-score 2.1 [2, 7]: 1.064; z-score 2.2 [2, 7]: 1.82
6 | PEIWIAQEIDRIGNEINAYYARR | – | – | – | – | – | > 6.00 | –
7 | FADD (APGEEDLCAAFNVICDNVGKDWRRLA) | 0.7867 | – | -1.0584 | -0.5034 | 0.6909 | – | z-score 1.2 [1]: 0.7662; z-score 2.1 [2, 4]: 0.7016
8 | EXOC4 (MQTLSELAKSFQDMADRCLLVLHLEV) | 0.001659 | -1.314 | 0.7648 | -1.829 | -0.5885 | – | z-score 1.2 [1]: -0.5001
9 | PEIWIAQEIRRIGEEYNAYYARR | – | – | – | – | – | > 6.00 | –
10 | ISOC1 (AGYELLIQKFLSLYGDQIDMHRKFVV) | 1.04 and 0.6675 | 0.5198 and 0.4144 | – | – | 0.4271 and 0.3646 | – | –
11 | PEIWIAQEIGRIGNEVNAYYARR | – | – | – | – | – | > 6.00 | –
12 | PEIWVAQEIERIGDEVNAYYARR | – | – | – | – | – | > 6.00 | –
13 | PEIWVAQEFGRAGDEFNAYYARR | – | – | – | – | – | < 5.00 | –
14 | PRCP (DDMFEPHSWNLKELSDDCFQQWGVRP) | 0.7051 | 0.9311 | -0.9043 | 0.9292 | 1.668 | – | z-score 1.2 [1]: 0.7633; z-score 2.1 [2, 4]: 0.4444
15 | WAREIGAQLRRMADDLNAQYERR (EQWAREIGAQLRRMADDLNAQYERRR) [Puma] | – | – | – | – | – | – | pKd [3, 6]: > 6.00
16 | PEIWIAQEIGRTGDEVNAYYARR | – | – | – | – | – | > 6.00 | –
17 | RLAEVCAVLLRLGDELEMIRPSV (PGRLAEVCAVLLRLGDELEMIRPSVY) [Bok] | – | – | – | – | – | – | pKd [3, 6]: > 6.00
18 | PEIWFAQEVNRIGDEVNAYYARR | – | – | – | – | – | < 5.00 | –

Row | Substance | z-score 2.1 [1] | z-score 2.2 [1] | z-score 1.1 [2, 4] | z-score 1.2 [2, 4] | z-score 2.2 [2, 4] | pKd [3, 5] | further results
19 | PEIWIAQEIGRIGDETNAYYARR | – | – | – | – | – | > 6.00 | –
20 | PEIWIAQELGRNGDEFNAYYARR | – | – | – | – | – | < 5.00 | –
21 | PEIWVAQEFGRNGDEFNAYYARR | – | – | – | – | – | < 5.00 | –
22 | PEIWFAQEVGRIGDEVNAYYARR | – | – | – | – | – | > 6.00 | –
23 | PEIWVAQEIDRVGDEINAYYARR | – | – | – | – | – | > 6.00 | –
24 | COL2A1 (VLLTLLVAAVLRCQGQDVQEAGSCVQ) | 1.806 | 2.677 | 1.515 | -1.523 | 2.141 | – | z-score 2.1 [2, 4]: 1.61
25 | WRAP53 (RKDAELLCWDLRQSGYPLWSLGREVT) | 1.332 | 1.084 | 0.8939 | -0.01936 | 1.068 | – | z-score 2.1 [2, 4]: 1.1339
26 | IPO5 (SEIMHSFAKCIEVMGDGCLNNEHFEE) | 1.802 | 1.866 | 8.932 | -0.8907 | 0.6709 | – | z-score 1.2 [1]: 1.584; z-score 2.1 [2, 4]: 0.7008
27 | PEIWIAQEIDRIGDEFNAYYARR | – | – | – | – | – | > 6.00 | –
28 | FOXI1 (PDKRLTLSQIYQYVADNFPFYNKSKA) | – | -0.4966 | 4.354 | -0.599 | 1.501 | – | z-score 1.2 [1]: 0.03188; z-score 2.1 [2, 4]: 1.203
29 | PEIWFAQELKRNGDEYNAYYARR | – | – | – | – | – | < 5.00 | –
30 | PEIWIAQEIDRIGDETNAYYARR | – | – | – | – | – | > 6.00 | –
31 | ZNF295 (ERLKGQLCDVLLIVGDQKFRAHKNVL) | -0.9697 | 0.1208 | 0.6872 | -1.979 | -0.4135 | – | z-score 1.2 [1]: 0.3792; z-score 2.1 [2, 4]: 2.441
32 | PEIWAAQEIRRIGDENNAYYARR | – | – | – | – | – | > 6.00 | –
33 | C7orf26 (FDHMVPLVEEINRLADELNPLNASQE) | 1.59 | 1.598 | 0.6785 | 0.5183 | 0.7734 | – | z-score 1.2 [1]: 0.6167; z-score 2.1 [2, 4]: 0.5393
34 | PEIWIAQELQRDGDEYNAYYARR | – | – | – | – | – | < 5.00 | –
35 | PEIWFAQELRRDGDEYNAYYARR | – | – | – | – | – | < 5.00 | –
36 | PEIWFAQELSRYGEEYNAYYARR | – | – | – | – | – | < 5.00 | –
